Substitutions are numbered along the chain they refer to.
T1: human AILIM-IgFc (human, UniProt Q9Y6W8)
T1 chain: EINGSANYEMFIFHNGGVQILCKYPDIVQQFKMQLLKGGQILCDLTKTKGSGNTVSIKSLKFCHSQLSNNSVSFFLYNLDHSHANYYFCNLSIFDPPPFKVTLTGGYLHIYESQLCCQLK

B1: AII289 (JMab-138) (antibody, V domains shown)
VH: EVQLVESGGGLVQPGGSLRLSCAASGFTFSSYDMHWVRQATGKGLEWVSAIGTAGDTYYPGSVKGRFTISRENAKNSLYLQMNSLRAGDTAVYYCVRDNRKVTHEHYYYYGMDVWGQGTTVTVSS
VL: EIVLTQSPGTLSLSPGERATLSCRASQNIRSSYLAWYQQKPGQAPGLLIYGASSRATGIPDRFSGSGSGTDFTLTISRLEPEDFAVYYCQQFGSSPMCSFGQGTKLEIKR
B2: AII394 (JMab-139) (antibody, V domains shown)
VH: B1 VH with N99K, K101T
VL: B1 VL with N28S, R30S, Y33S, Y50F

Biological target: T1, human AILIM-IgFc
Assay: SPR

Binder | Kd [nM]
B1 | 1.1
B2 | 0.77

From patent publication US20120039874 (published 2012)
